Measurements reported in patent US20240117018A1.

Assays:
Assay in all cases: cell-based or functional assay
[1] = molecular target: HIV-1 Env of pseudovirus P0402_c2_11 (HIV-1)
[2] = molecular target: HIV-1 Env of pseudovirus 263-8 (HIV-1)
[3] = molecular target: HIV-1 Env of pseudovirus 6811.v7.c18 (HIV-1)
[4] = molecular target: HIV-1 Env of pseudovirus 191955_A11 (HIV-1)
[5] = molecular target: HIV-1 Env of pseudovirus 6540.v4.c1 (HIV-1)
[6] = molecular target: HIV-1 Env of pseudovirus 6545.v4.c1 (HIV-1)
[7] = molecular target: HIV-1 Env of pseudovirus C1080.c03 (HIV-1)
[8] = molecular target: HIV-1 Env of pseudovirus 620345.c01 (HIV-1)
[9] = molecular target: HIV-1 Env of pseudovirus 89-F1_2_25 (HIV-1)
[10] = molecular target: HIV-1 Env of pseudovirus 235-47 (HIV-1)
[11] = molecular target: HIV-1 Env of pseudovirus 211-9 (HIV-1)
[12] = molecular target: HIV-1 Env of pseudovirus 6480.v4.c25 (HIV-1)
[13] = molecular target: HIV-1 Env of pseudovirus 6952.v1.c20 (HIV-1)
[14] = molecular target: HIV-1 Env of pseudovirus 928-28 (HIV-1)
[15] = molecular target: HIV-1 Env of pseudovirus R2184.c04 (HIV-1)
[16] = molecular target: HIV-1 Env of pseudovirus 191084 B7-19 (HIV-1)
[17] = molecular target: HIV-1 Env of pseudovirus R1166.c01 (HIV-1)
[18] = molecular target: HIV-1 Env of pseudovirus BJOX010000.06.2 (HIV-1)
[19] = molecular target: HIV-1 Env of pseudovirus 3103.v3.c10 (HIV-1)
[20] = molecular target: HIV-1 Env of pseudovirus T255-34 (HIV-1)
[21] = molecular target: HIV-1 Env of pseudovirus BJOX025000.01.1 (HIV-1)
[22] = molecular target: HIV-1 Env of pseudovirus 3016.v5.c45 (HIV-1)
[23] = molecular target: HIV-1 Env of pseudovirus 231966.c02 (HIV-1)
[24] = molecular target: HIV-1 Env of pseudovirus R3265.c06 (HIV-1)
[25] = molecular target: HIV-1 Env of pseudovirus 9004SS_A3_4 (HIV-1)
[26] = molecular target: HIV-1 Env of pseudovirus 3817.v2.c59 (HIV-1)
[27] = molecular target: HIV-1 Env of pseudovirus X2088_c9 (HIV-1)
[28] = molecular target: HIV-1 Env of pseudovirus 6041.v3.c23 (HIV-1)
[29] = molecular target: HIV-1 Env of pseudovirus X1193_c1 (HIV-1)
[30] = molecular target: HIV-1 Env of pseudovirus 3301.v1.c24 (HIV-1)
[31] = molecular target: HIV-1 Env of pseudovirus C4118.c09 (HIV-1)
[32] = molecular target: HIV-1 Env of pseudovirus C3347.c11 (HIV-1)
[33] = molecular target: HIV-1 Env of pseudovirus A07412M1.vrc12 (HIV-1)
[34] = molecular target: HIV-1 Env of pseudovirus X2131_C1_B5 (HIV-1)
[35] = molecular target: HIV-1 Env of pseudovirus T278-50 (HIV-1)
[36] = molecular target: HIV-1 Env of pseudovirus T251-18 (HIV-1)
[37] = molecular target: HIV-1 Env of pseudovirus 0815.v3.c3 (HIV-1)

N49P9.1 (antibody)
neutralization IC50 [1]: 0.06 µg/mL
neutralization IC80 [1]: 0.163 µg/mL
neutralization MPI [1]: 100
neutralization IC50 [2]: 0.049 µg/mL
neutralization IC80 [2]: 0.17 µg/mL
neutralization MPI [2]: 100
neutralization IC50 [3]: 0.398 µg/mL
neutralization IC80 [3]: 1.76 µg/mL
neutralization MPI [3]: 97
neutralization IC50 [4]: > 50 µg/mL
neutralization IC80 [4]: > 50 µg/mL
neutralization MPI [4]: 26
neutralization IC50 [5]: > 50 µg/mL
neutralization IC80 [5]: > 50 µg/mL
neutralization MPI [5]: 30
neutralization IC50 [6]: > 50 µg/mL
neutralization IC80 [6]: > 50 µg/mL
neutralization MPI [6]: 6
neutralization IC50 [7]: 0.156 µg/mL
neutralization IC80 [7]: 0.939 µg/mL
neutralization MPI [7]: 100
neutralization IC50 [8]: > 50 µg/mL
neutralization IC80 [8]: > 50 µg/mL
neutralization MPI [8]: 7
neutralization IC50 [9]: > 50 µg/mL
neutralization IC80 [9]: > 50 µg/mL
neutralization MPI [9]: 23
neutralization IC50 [10]: 0.045 µg/mL
neutralization IC80 [10]: 0.352 µg/mL
neutralization MPI [10]: 98
neutralization IC50 [11]: 0.17 µg/mL
neutralization IC80 [11]: 0.579 µg/mL
neutralization MPI [11]: 100
neutralization IC50 [12]: 0.03 µg/mL
neutralization IC80 [12]: 0.082 µg/mL
neutralization MPI [12]: 100
neutralization IC50 [13]: 0.119 µg/mL
neutralization IC80 [13]: 0.389 µg/mL
neutralization MPI [13]: 100
neutralization IC50 [14]: 0.163 µg/mL
neutralization IC80 [14]: 0.695 µg/mL
neutralization MPI [14]: 100
neutralization IC50 [15]: 0.019 µg/mL
neutralization IC80 [15]: 0.057 µg/mL
neutralization MPI [15]: 100
neutralization IC50 [16]: 0.097 µg/mL
neutralization IC80 [16]: 0.259 µg/mL
neutralization MPI [16]: 100
neutralization IC50 [17]: 0.073 µg/mL
neutralization IC80 [17]: 0.232 µg/mL
neutralization MPI [17]: 100
neutralization IC50 [18]: 0.883 µg/mL
neutralization IC80 [18]: 4.26 µg/mL
neutralization MPI [18]: 100
neutralization IC50 [19]: > 50 µg/mL
neutralization IC80 [19]: > 50 µg/mL
neutralization MPI [19]: 45
neutralization IC50 [20]: 0.092 µg/mL
neutralization IC80 [20]: 0.286 µg/mL
neutralization MPI [20]: 100
neutralization IC50 [21]: 0.131 µg/mL
neutralization IC80 [21]: 0.67 µg/mL
neutralization MPI [21]: 100
neutralization IC50 [22]: 0.076 µg/mL
neutralization IC80 [22]: 0.223 µg/mL
neutralization MPI [22]: 100
neutralization IC50 [23]: 0.067 µg/mL
neutralization IC80 [23]: 0.237 µg/mL
neutralization MPI [23]: 100
neutralization IC50 [24]: 0.469 µg/mL
neutralization IC80 [24]: 1.62 µg/mL
neutralization MPI [24]: 100
neutralization IC50 [25]: 0.323 µg/mL
neutralization IC80 [25]: 1.13 µg/mL
neutralization MPI [25]: 100
neutralization IC50 [26]: 1.35 µg/mL
neutralization IC80 [26]: 8.26 µg/mL
neutralization MPI [26]: 95
neutralization IC50 [27]: 0.091 µg/mL
neutralization IC80 [27]: 0.392 µg/mL
neutralization MPI [27]: 100
neutralization IC50 [28]: 0.282 µg/mL
neutralization IC80 [28]: 6.78 µg/mL
neutralization MPI [28]: 90
neutralization IC50 [29]: 0.042 µg/mL
neutralization IC80 [29]: 0.15 µg/mL
neutralization MPI [29]: 100
neutralization IC50 [30]: 0.059 µg/mL
neutralization IC80 [30]: 0.178 µg/mL
neutralization MPI [30]: 100
neutralization IC50 [31]: 0.062 µg/mL
neutralization IC80 [31]: 0.218 µg/mL
neutralization MPI [31]: 100
neutralization IC50 [32]: 0.029 µg/mL
neutralization IC80 [32]: 0.083 µg/mL
neutralization MPI [32]: 100
neutralization IC50 [33]: 0.189 µg/mL
neutralization IC80 [33]: 0.947 µg/mL
neutralization MPI [33]: 100
neutralization IC50 [34]: 0.143 µg/mL
neutralization IC80 [34]: 0.476 µg/mL
neutralization MPI [34]: 100
neutralization IC50 [35]: > 50 µg/mL
neutralization IC80 [35]: > 50 µg/mL
neutralization MPI [35]: 5
neutralization IC50 [36]: 0.127 µg/mL
neutralization IC80 [36]: 0.352 µg/mL
neutralization MPI [36]: 100
neutralization IC50 [37]: 0.012 µg/mL
neutralization IC80 [37]: 0.041 µg/mL
neutralization MPI [37]: 100

N49P19 (antibody)
neutralization IC50 [1]: 0.448 µg/mL
neutralization IC80 [1]: 2.63 µg/mL
neutralization MPI [1]: 100
neutralization IC50 [2]: 0.344 µg/mL
neutralization IC80 [2]: 1.51 µg/mL
neutralization MPI [2]: 99
neutralization IC50 [3]: 1.3 µg/mL
neutralization IC80 [3]: 4.71 µg/mL
neutralization MPI [3]: 97
neutralization IC50 [4]: > 50 µg/mL
neutralization IC80 [4]: > 50 µg/mL
neutralization MPI [4]: 16
neutralization IC50 [5]: 11.2 µg/mL
neutralization IC80 [5]: > 50 µg/mL
neutralization MPI [5]: 63
neutralization IC50 [6]: > 50 µg/mL
neutralization IC80 [6]: > 50 µg/mL
neutralization MPI [6]: 2
neutralization IC50 [7]: 0.682 µg/mL
neutralization IC80 [7]: 3.05 µg/mL
neutralization MPI [7]: 100
neutralization IC50 [8]: > 50 µg/mL
neutralization IC80 [8]: > 50 µg/mL
neutralization MPI [8]: 0
neutralization IC50 [9]: > 50 µg/mL
neutralization IC80 [9]: > 50 µg/mL
neutralization MPI [9]: 7
neutralization IC50 [10]: 0.44 µg/mL
neutralization IC80 [10]: 3.23 µg/mL
neutralization MPI [10]: 89
neutralization IC50 [11]: 3.23 µg/mL
neutralization IC80 [11]: 19 µg/mL
neutralization MPI [11]: 93
neutralization IC50 [12]: 3.04 µg/mL
neutralization IC80 [12]: 28.2 µg/mL
neutralization MPI [12]: 87
neutralization IC50 [13]: > 50 µg/mL
neutralization IC80 [13]: > 50 µg/mL
neutralization MPI [13]: 0
neutralization IC50 [14]: 2.73 µg/mL
neutralization IC80 [14]: 9.63 µg/mL
neutralization MPI [14]: 97
neutralization IC50 [15]: 0.132 µg/mL
neutralization IC80 [15]: 0.445 µg/mL
neutralization MPI [15]: 100
neutralization IC50 [16]: 0.357 µg/mL
neutralization IC80 [16]: 1.34 µg/mL
neutralization MPI [16]: 100
neutralization IC50 [17]: 0.629 µg/mL
neutralization IC80 [17]: 2.69 µg/mL
neutralization MPI [17]: 100
neutralization IC50 [18]: 4.16 µg/mL
neutralization IC80 [18]: 19.1 µg/mL
neutralization MPI [18]: 96
neutralization IC50 [19]: > 50 µg/mL
neutralization IC80 [19]: > 50 µg/mL
neutralization MPI [19]: 0
neutralization IC50 [20]: 0.948 µg/mL
neutralization IC80 [20]: 6.22 µg/mL
neutralization MPI [20]: 97
neutralization IC50 [21]: > 50 µg/mL
neutralization IC80 [21]: > 50 µg/mL
neutralization MPI [21]: 24
neutralization IC50 [22]: > 50 µg/mL
neutralization IC80 [22]: > 50 µg/mL
neutralization MPI [22]: 9
neutralization IC50 [23]: 0.653 µg/mL
neutralization IC80 [23]: 4.55 µg/mL
neutralization MPI [23]: 100
neutralization IC50 [24]: 0.634 µg/mL
neutralization IC80 [24]: 2.73 µg/mL
neutralization MPI [24]: 100
neutralization IC50 [25]: 0.661 µg/mL
neutralization IC80 [25]: 3.09 µg/mL
neutralization MPI [25]: 100
neutralization IC50 [26]: > 50 µg/mL
neutralization IC80 [26]: > 50 µg/mL
neutralization MPI [26]: 26
neutralization IC50 [27]: 1.4 µg/mL
neutralization IC80 [27]: 3.76 µg/mL
neutralization MPI [27]: 99
neutralization IC50 [28]: > 50 µg/mL
neutralization IC80 [28]: > 50 µg/mL
neutralization MPI [28]: 32
neutralization IC50 [29]: 0.54 µg/mL
neutralization IC80 [29]: 3.15 µg/mL
neutralization MPI [29]: 99
neutralization IC50 [30]: 0.302 µg/mL
neutralization IC80 [30]: 1.42 µg/mL
neutralization MPI [30]: 98
neutralization IC50 [31]: 0.386 µg/mL
neutralization IC80 [31]: 1.36 µg/mL
neutralization MPI [31]: 100
neutralization IC50 [32]: 3.94 µg/mL
neutralization IC80 [32]: 25.7 µg/mL
neutralization MPI [32]: 87
neutralization IC50 [33]: 3.89 µg/mL
neutralization IC80 [33]: 48.8 µg/mL
neutralization MPI [33]: 80
neutralization IC50 [34]: 2.52 µg/mL
neutralization IC80 [34]: 14.4 µg/mL
neutralization MPI [34]: 91
neutralization IC50 [35]: > 50 µg/mL
neutralization IC80 [35]: > 50 µg/mL
neutralization MPI [35]: 35
neutralization IC50 [36]: 0.938 µg/mL
neutralization IC80 [36]: 4.2 µg/mL
neutralization MPI [36]: 100
neutralization IC50 [37]: 0.176 µg/mL
neutralization IC80 [37]: 0.743 µg/mL
neutralization MPI [37]: 100
